Measured values published in article PMC9547003.

Target: bacteriophage T7 endonuclease I (C113S, S29C; called wild type in the paper), Cy3-labelled (bacteriophage T7) (UniProt P00641)
Assay: two-step photobleaching of single fluorescent molecules (confocal microscopy with optical tweezers); Cy3-labelled endonuclease I (one dye on each monomer) diffusing on force-stretched dsDNA held between optically trapped beads; 1 nM protein, 25 mM Tris-HCl pH 7.5, 50 mM NaCl, 0.1% BSA, 1 mM CaCl2 or MgCl2

bacteriophage T7 endonuclease I (C113S, S29C; called wild type in the paper), Cy3-labelled (from UniProt P00641 1-149) (enzyme)
stoichiometry N: 2
